Five molecules from patent publication US20240309080A1 (CHIA TAI TIANQING PHARMACEUTICAL GROUP, published 2024) can be followed below.

Numbering of substitutions follows the chain as printed. Like-named read-outs stand apart in the source and are kept apart here.

Holding throughout (experiment): cell-based or functional assay
Experiment [1] has as its target T1, recombinant human TSLP-his (human, UniProt Q969D9 29-159, biotin-labeled in the capture ELISA).
In experiment [2] the target is T1, recombinant human TSLP-his. The source holds these as a separate data set.
Experiment [3] deals with T1, recombinant human TSLP-his. The source holds these as a separate data set.
In experiment [4] the target is T1, recombinant human TSLP-his. The source holds these as a separate data set.
In experiment [5] the target is T1, recombinant human TSLP-his. The source holds these as a separate data set.
Experiment [6] has as its target T1, recombinant human TSLP-his. This is another data set of the same source.

B1: hu1C5F12E9-V8 (IgG1) (antibody)
heavy: not shown
light: DIQMTQSPSSLSASVGDRVTITCRPTENIYSYLAWYQQKPGKAPKLLIYFARTLAEGVPSRFSGSGSGTDFTLTISSLQPEDFATYYCQHHYGTPWTFGGGTKVEIKRTVAAPSVFIFPPSDEQLKSGTASVVCLLNNFYPREAKVQWKVDNALQSGNSQESVTEQDSKDSTYSLSSTLTLSKADYEKHKVYACEVTHQGLSSPVTKSFNRGEC
Take B1: the “IC50, STAT5-luciferase reporter in HEK293T-TSLPR/IL7R/STAT5-Luc cells stimulated with human TSLP-his (RLU)” value in experiment [1] turned out to be 0.0118 µg/mL. For the same molecule, in experiment [2], the “IC50, TSLP-his dependent survival and proliferation of BAF3-3E6 cells expressing TSLPR/IL7R (RLU)” value worked out at 4.32 pM.

B2: hu1C5F12E9-V8 (IgG4) (antibody)
heavy: not shown
light: B1 light
Turning to B2, the “IC50, STAT5-luciferase reporter in HEK293T-TSLPR/IL7R/STAT5-Luc cells stimulated with human TSLP-his (RLU)” value in experiment [1] is about 0.0162 µg/mL. In addition, in experiment [2], the “IC50, TSLP-his dependent survival and proliferation of BAF3-3E6 cells expressing TSLPR/IL7R (RLU)” value came out at 14.7 pM. Besides, in experiment [3], the “IC50, TSLP-his dependent survival and proliferation of BAF3-3E6 cells expressing TSLPR/IL7R (Cell Titer-Glo, RLU)” value (from here on “IC50 … (Cell Titer-Glo, RLU)”) was 1.68 pM.

B3: hu1C5F12E9-V14 (IgG1) (antibody)
heavy: not shown
light: B1 light with A43S
Turning to B3, the “IC50, TSLP-his dependent survival and proliferation of BAF3-3E6 cells expressing TSLPR/IL7R (RLU)” value in experiment [4] was found to be 6.73 pM. The “IC50, STAT5-luciferase reporter in HEK293T-TSLPR/IL7R/STAT5-Luc cells stimulated with human TSLP-his (RLU)” value in experiment [5] turned out to be 0.022 µg/mL.

B4: hu1C5F12E9-V14 (IgG4) (antibody)
heavy: not shown
light: B1 light with A43S
Turning to B4, the “IC50, TSLP-his dependent survival and proliferation of BAF3-3E6 cells expressing TSLPR/IL7R (RLU)” value in experiment [4] was 8.36 pM. Further, the “IC50, STAT5-luciferase reporter in HEK293T-TSLPR/IL7R/STAT5-Luc cells stimulated with human TSLP-his (RLU)” value in experiment [5] came to 0.025 µg/mL. For the same molecule, the “IC50 … (Cell Titer-Glo, RLU)” value in experiment [6] is 5.78 pM.

B5: Chimeric 1C5F12E9 (antibody, V domains shown)
VH: QVQLQQPGTELVKPGASVKMSCKASGYTFTTYWMHWVKQRPGQGLEWIGVIDPSDSDTTYNQKFKGKATLTVDTSSSTAYMQLSSLTSEDSAVYYCTRSLDGYYDYWGQGTTLTVSS
VL: DIQMTQSPASLSASVGETVTITCRPTENIYSYLAWYQQKQGKSPHLLVYFARTLAEGVPSRFSGSGSGTQFSLKINSLQPEDFGIYYCQHHYGTPWTFGGGTKLEIK
Take B5: the “IC50 … (Cell Titer-Glo, RLU)” value in experiment [3] worked out at 0.521 pM; in experiment [6], 1.37 pM.
